Results on two molecules are retold here after PMC10397247.

Holding throughout (assay): two-hybrid library CCmax;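 note: natural log of median RNA to DNA barcode read ratio; higher means stronger binding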
Test [1] addresses T1, APC3645-AA.
T1 chain: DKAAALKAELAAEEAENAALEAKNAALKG
Particulars: mean of both orientations.

For test [2], the target named is T2, APC232-AA.
T2 chain: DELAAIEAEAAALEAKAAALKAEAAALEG
As to conditions: mean of both orientations.

The target in test [3] is T3, 4H716-AA.
T3 chain: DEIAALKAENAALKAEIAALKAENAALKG

The target of test [4] is T4, APC8191-AA.
T4 chain: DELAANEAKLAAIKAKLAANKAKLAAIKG
Particulars: mean of both orientations.

In test [5] the target is T5, APC8910-AA.
T5 chain: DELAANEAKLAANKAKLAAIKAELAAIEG
Particulars: mean of both orientations.

The target in test [6] is T6, APC1015-AA.
T6 chain: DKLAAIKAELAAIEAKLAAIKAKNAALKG
Particulars: mean of both orientations.

The target of test [7] is T7, 4H733-AA.
T7 chain: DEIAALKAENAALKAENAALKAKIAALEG
As to conditions: mean of both orientations.

Test [8] concerns the target T8, APC2237-AA.
T8 chain: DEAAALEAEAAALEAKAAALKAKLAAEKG
Particulars: mean of both orientations.

Test [9] concerns the target T9, APC4436-AA.
T9 chain: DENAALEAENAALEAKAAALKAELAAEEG
As to conditions: mean of both orientations.

The target in test [10] is T10, APC5383-AA.
T10 chain: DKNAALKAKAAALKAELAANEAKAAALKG
Particulars: mean of both orientations.

Test [11] concerns the target T11, APC1434-AA.
T11 chain: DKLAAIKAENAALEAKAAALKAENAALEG
As to conditions: mean of both orientations.

In test [12] the target is T12, APC7099-AA.
T12 chain: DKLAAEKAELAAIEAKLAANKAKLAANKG
As to conditions: mean of both orientations.

Test [13] concerns the target T13, APC4011-AA.
T13 chain: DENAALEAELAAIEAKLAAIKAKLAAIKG
Particulars: mean of both orientations.

Test [14] deals with T14, APC6108-AA.
T14 chain: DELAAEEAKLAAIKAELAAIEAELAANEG
As to conditions: mean of both orientations.

For test [15], the target named is T15, APC2405-AA.
T15 chain: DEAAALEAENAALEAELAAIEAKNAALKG
As to conditions: mean of both orientations.

In test [16] the target is T16, APC9319-AA.
T16 chain: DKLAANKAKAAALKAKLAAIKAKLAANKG
Particulars: mean of both orientations.

Test [17] addresses T17, APC9096-AA.
T17 chain: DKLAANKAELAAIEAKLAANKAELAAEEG
As to conditions: mean of both orientations.

The target in test [18] is T18, 4H807-AA.
T18 chain: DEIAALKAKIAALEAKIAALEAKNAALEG
Particulars: mean of both orientations.

Test [19] deals with T19, APC4264-AA.
T19 chain: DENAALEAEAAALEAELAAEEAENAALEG
As to conditions: mean of both orientations.

Test [20] has as its target T20, 4H2774-AA.
T20 chain: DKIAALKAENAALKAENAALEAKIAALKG
Particulars: mean of both orientations.

For test [21], the target named is T21, 4H3438-AA.
T21 chain: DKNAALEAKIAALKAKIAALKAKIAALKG
As to conditions: mean of both orientations.

The target of test [22] is T22, 4H2343-AA.
T22 chain: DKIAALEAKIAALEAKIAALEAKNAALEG
As to conditions: mean of both orientations.

For test [23], the target named is T23, 4H249-AA.
T23 chain: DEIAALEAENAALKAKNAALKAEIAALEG
Particulars: mean of both orientations.

For test [24], the target named is T24, 4H56-AA.
T24 chain: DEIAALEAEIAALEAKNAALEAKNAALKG
As to conditions: mean of both orientations.

Test [25] has as its target T25, 4H2330-AA.
T25 chain: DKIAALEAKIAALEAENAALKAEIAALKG
As to conditions: mean of both orientations.

Test [26] has as its target T26, 4H3073-AA.
T26 chain: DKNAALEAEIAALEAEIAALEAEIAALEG

For test [27], the target named is 4H_GCN4. Particulars: mean of both orientations.
The target in test [28] is T27, 4H2124-AA.
T27 chain: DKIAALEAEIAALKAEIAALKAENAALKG

Test [29] addresses T28, 4H2466-AA.
T28 chain: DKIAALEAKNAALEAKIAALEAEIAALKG
Particulars: mean of both orientations.

Test [30] addresses T29, 4H2165-AA.
T29 chain: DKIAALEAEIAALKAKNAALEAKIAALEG
Particulars: mean of both orientations.

For test [31], the target named is T30, 4H3001-AA.
T30 chain: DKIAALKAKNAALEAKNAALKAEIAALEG
Particulars: mean of both orientations.

Test [32] has as its target T31, 4H_BCR.
T31 chain: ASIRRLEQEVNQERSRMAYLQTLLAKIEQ
Particulars: mean of both orientations.

The target of test [33] is T32, 4H2732-AA.
T32 chain: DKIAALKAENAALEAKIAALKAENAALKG
As to conditions: mean of both orientations.

The target in test [34] is T33, 4H2253-AA.
T33 chain: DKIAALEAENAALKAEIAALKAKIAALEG
As to conditions: mean of both orientations.

The target in test [35] is T34, 4H2931-AA.
T34 chain: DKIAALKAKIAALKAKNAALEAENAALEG
As to conditions: mean of both orientations.

The target in test [36] is GCN2_T.
Test [37] has as its target T35, 4H_APH.
T35 chain: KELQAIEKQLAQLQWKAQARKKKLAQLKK
As to conditions: mean of both orientations.

Test [38] addresses T36, 4H452-AA.
T36 chain: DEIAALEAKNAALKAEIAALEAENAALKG
As to conditions: mean of both orientations.

The target in test [39] is T37, 4H406-AA.
T37 chain: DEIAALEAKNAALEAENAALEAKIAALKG
Particulars: mean of both orientations.

The target in test [40] is T38, 4H3015-AA.
T38 chain: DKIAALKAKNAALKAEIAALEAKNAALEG

The target of test [41] is T39, 4H347-AA.
T39 chain: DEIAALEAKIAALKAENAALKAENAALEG
As to conditions: mean of both orientations.

The target in test [42] is T40, 4H2592-AA.
T40 chain: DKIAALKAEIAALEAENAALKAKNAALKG
Particulars: mean of both orientations.

4H_GCN4, sequence (chain, as listed by the source): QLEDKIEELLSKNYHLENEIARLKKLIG

B1: 4H716-AA (peptide)
chain: DEIAALKAENAALKAEIAALKAENAALKG
As to B1, the interaction score in [1] is -1.45; in test [2], -1.48; in [3], 1.49; in test [4] it was -1.36; in [5] it was -1.89; in test [6] it was -1.65. Besides, the interaction score was -1.28 in test [7]; -1.74 in test [8]; -1.65 in test [9]; -1.79 in test [10]; -1.53 in test [11]; -1.6 in [12]. The interaction score in [13] was -1.44; in test [14], -1.47; in [15], -1; in test [16], -1.79; in test [17], -1.43; in test [18] it was -1.6. Further, the interaction score in test [19] was -1.35.

B2: 4H2124-AA (peptide)
chain: DKIAALEAEIAALKAEIAALKAENAALKG
Take B2: the interaction score in [20] was -1.38; in [21], -0.0325; in test [22] it was -0.871; in test [23], -1.78; in [24], -1.73; in [25] it was -1.05. The interaction score in test [26] is 1.36; in test [27], -1.93; in [28], 1.61; in test [29], -1.16; in test [30], -1.36; in [31], -1.89. Moreover, the interaction score in test [32] is -2.09; in test [33], -1.2; in [34] it was -1.14; in test [35], -1.45; in [36], -1.07; in test [37], -1.67. Also, the interaction score in test [38] is -1.95; in [39] it was -1.71; in test [40], -1.19; in [41], -1.2; in test [42], -0.666.
